Results reported in paper PMC3543382, “Elements of Transcriptional Machinery Are Compatible among Plants and Mammals” (PLoS ONE, 2013).

Target: RelA-ECFP (human, UniProt Q04206 1-551)
Assay: cell-based or functional assay

Chain of RelA-ECFP (Q04206 whole entry): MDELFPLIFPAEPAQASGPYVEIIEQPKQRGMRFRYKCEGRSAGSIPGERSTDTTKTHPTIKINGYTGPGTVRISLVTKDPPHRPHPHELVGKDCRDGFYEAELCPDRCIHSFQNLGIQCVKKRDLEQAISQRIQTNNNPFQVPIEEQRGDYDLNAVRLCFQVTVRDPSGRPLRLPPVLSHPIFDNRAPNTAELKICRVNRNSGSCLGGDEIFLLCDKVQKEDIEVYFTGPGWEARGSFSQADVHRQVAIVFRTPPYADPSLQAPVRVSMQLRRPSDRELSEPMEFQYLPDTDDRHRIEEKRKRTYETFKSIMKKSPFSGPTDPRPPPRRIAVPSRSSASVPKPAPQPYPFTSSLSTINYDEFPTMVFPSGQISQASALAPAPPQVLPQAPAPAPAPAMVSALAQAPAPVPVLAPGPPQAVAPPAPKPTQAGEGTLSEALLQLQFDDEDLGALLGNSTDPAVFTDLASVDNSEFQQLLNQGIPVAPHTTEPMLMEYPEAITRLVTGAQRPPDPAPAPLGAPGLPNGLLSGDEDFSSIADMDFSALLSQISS

B1: IκB-EYFP (natural protein, human, UniProt P25963 1-317, looked up)
chain: MFQAAERPQEWAMEGPRDGLKKERLLDDRHDSGLDSMKDEEYEQMVKELQEIRLEPQEVPRGSEPWKQQLTEDGDSFLHLAIIHEEKALTMEVIRQVKGDLAFLNFQNNLQQTPLHLAVITNQPEIAEALLGAGCDPELRDFRGNTPLHLACEQGCLASVGVLTQSCTTPHLHSILKATNYNGHTCLHLASIHGYLGIVELLVSLGADVNAQEPCNGRTALHLAVDLQNPDLVSLLLKCGADVNRVTYQGYSPYQLTWGRPSTRIQQQLGQLTLENLQMLPESEDEESYDTESEFTEFTEDELPYDDCVFGGQRLTL
In the case of B1, the “transactivation of the IκBα-promoter EYFP reporter by the p50/RelA heterodimer in the presence of IκB (untagged proteins) in Arabidopsis protoplasts, EYFP/ECFP emission relative to the basal activity” value is reported as 3.5 fold.
